Measured values reported in WO2021028752A1 (dated 2021).

Target: recombinant human TNFa (human, UniProt P01375 77-233, 125I label (only in the receptor inhibition assay))
Experiment: cell-based or functional assay

Chain of recombinant human TNFa (P01375 77-233 limits assumed): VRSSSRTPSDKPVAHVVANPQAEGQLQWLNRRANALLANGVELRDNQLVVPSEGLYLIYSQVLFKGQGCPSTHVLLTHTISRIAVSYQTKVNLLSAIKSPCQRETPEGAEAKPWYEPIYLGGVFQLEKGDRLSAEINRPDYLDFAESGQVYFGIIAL

B1: TNV196 (antibody, V domains shown)
VH: QVQLVESGGGVVQPGRSLRLSCAASGFTFSSYAMHWVRQAPGKGLEWVAFISYDGSNKKSADSVKGRFTVSRDNSKNTLFLQMNSLRAEDTAVFYCARDRGIGAGGNYYYYGMDVWGQGTTVTVSS
VL: EIVLTQSPATLSLSPGERATLSCRASQSVYSYLAWYQQKPGQAPRLLIYDASNRATGIPARFSGSGSGTDFTLTISSLEPEDFAVYYCQQRSNWPPFTFGPGTKVDIK
- neutralizing TNFa bioactivity: 4 fold
